The results in this text go back to the DeepSol protein solubility set.

The data set in a line: soluble on expression in E. coli; label from the status in PepcDB or PDB records.
Take “MTLKFSVERLVDSEKESEEADVEEQNNLKKLEEDEEDDELCEKSGKNEPLSQTLSYFDVLLPHVQMACSNPFISGIGASGSGDQNLNTGAGGSVWQHPWLELLQSTTAAQFGDVTAGLFLQPLRKNKRIRTAFSASQLIQLEKAFEGNHYVVGNERKQLAAKLSLTETQVKVWFQNRRTKHKRVRLEGSDPNAPMSNDEDDEDDKKSVS”: the “soluble on expression in E. coli” value is reported as “not soluble”. For “MSVDEKPIKIKVEKVSKIFGKQTKKAVQMLANGKAKKEILKATGSTVGVNQADFEVYDGEIFVIMGLSGSGKSTLVRMLNRLIEPTAGNIYIDGDMITNMSKDQLREVRRKKISMVFQKFALFPHRTILENTEYGLELQGVDKQERQQKALESLKLVGLEGFEHQYPDQLSGGMQQRVGLARALTNDPDILLMDEAFSALDPLIRKDMQDELLDLHDNVGKTIIFITHDLDEALRIGDRIVLMKDGNIVQIGTPEEILMNPSNEYVEKFVEDVDLSKVLTAGHIMKRAETVRIDKGPRVALTLMKNLGISSIYAVDKQKKLLGVIYASDAKKAAESDLSLQDILNTEFTTVPENTYLTEIFDVVSDANIPIAVVDEKQRMKGIVVRGALIGALAGNNEYINAEGT”, the “soluble on expression in E. coli” value was “not soluble”. The value for “MRIAANACPALVLNADFQPLSYFPLSLWSWQEAVKAVFMDRVCVVSEYDRVVHSPSLDLSLPSVISLKEYVPVAKRAAFTRFNVFLRDGFACQYCGIRLPAHDLTFDHVVPRSKGGVTAWNNVVTACGPCNMRKANRTPREAAMPLLQRPAEPSTHRLRNEGRSFPPGYLHESWRDFLYWDVELDPFLEHHHHHH” was “not soluble”; that for “VEYSKDRLEMEIVMAAERLDITEECIRFSSHNKFFIEELNNSSSGSGRKLNFLLQEQLREANTIASKSQNADISQKVVHIKEELEKVREQLQNIE” was “not soluble”. With “MGSDKIHHHHHHMSRTITIDPVTRIEGHATITIRLDDAGSVADARLHVTEFRGFEAFCVGRSIWEMPGITARICGICPISHSIASARAGDAILGVDIPPAAEQLRRIANLASLIQSHALSFFHLCAADLLLGMDHDPSRRSLWGLLESRPDVARRGIRLRQIGQQIVSNLAGERVHPSWAVPGGVREPLDAERRRKVVELLPEGIAIIRSAFELLDEIYGRHGAEVGTYGDFPSLFAGLVGEDGGLEHYDGMLRFTDSSGAVVEEVPPDHYDLAIGERSEPWSYMKFPFYRNHAGRDGGGMFRVGPLARLNLCERAGTPEADRELQTFRQLRGTGGVVTGSFHYHHARLIEILHALERIGELLDDPAILDRHVRSEAGVNRRHGVGFCEAPRGTLFHDYEVDDDGLILRLNLLIATGQNNLAMNRTILEVARSHIKGGKVSEGILNRIEHGIRAYDPCLSCATHVYGRMPFQVLLLAPDGTVVDEIAS” the entry was “not soluble”; with “PSIKSGTILHAWNWSFNTLKNNMKDIHDAGYTAIQTSPINQVKEGNKGDKSMGNWYWLYQPTSYQIGNRYLGSEEEFKEMCAAAEEYGVKVIVDAVINHTTSDYAAISNEIKSISNWTHGNTQIKNWSDRWDVTQNSLLGLYDWNTQNTQVQSYLKRFLERALNDGADGFRYDAAKHIELPDDGNYGSQFWPNITNTSAEFQYGEILQDSASRDAAYANYMNVTASNYGHSIRSALKNRNLSVSNISHYASDVSADKLVTWVESHDTYANDDEESTWMSDDDIRLGWAVIASRSGSTPLFFSRPDGGGNGVRFPGKTQIGDRGSALFEDQAIVAVNTFHNVMAGQPEELSNPNGNNQIFMNQRGSKGVVLANAGSSSVSINASTKLPDGSYDNKAGTGSFQVRDGKLTGTINARSVAVLYPD”, “soluble”; with “MAEFRIAQDVVARENDRRASALKEDYEALGANLARRGVDIEAVTAKVEKFFVAVPSWGVGTGGTRFARFPGTGEPRGIFDKLDDCAVIQQLTRATPNVSLHIPWDKADPKELKARGDALGLGFDAMNSNTFSDAPGQAHSYKYGSLSHTNAATRAQAVEHNLECIEIGKAIGSKALTVWIGDGSNFPGQSNFTRAFERYLSAMAEIYKGLPDDWKLFSEHKMYEPAFYSTVVQDWGTNYLIAQTLGPKAQCLVDLGHHAPNTNIEMIVARLIQFGKLGGFHFNDSKYGDDDLDAGAIEPYRLFLVFNELVDAEARGVKGFHPAHMIDQKHNVTDPIESLINSANEIRRAYAQALLVDRAALSGYQEDNDALMATETLKRAYRTDVEPILAEARRRTGGAVDPVATYRASGYRARVAAERPASVAGGGGIIGSHHHHHH”, “soluble”. The value for “MNPLSIVIITLNEENRIGRLLEDLTEQTFKNFEVIVVDSNSSDATCEVAQSFSASIPDLTVHKMDKQGVSLGRNTGASLAKHERLLFLDADVRLSPDFLTKALTQLNEKGLEVAGVYMGSKGLPVAHKLGYMTFNIGLFLTQFAFPTAVGACIFSTRRAHKDLLGFDENITLCEDCDYVKRASRTWRFRFLPMTFEFDPRRLEQDGFLRMGYTYLKANVRRFLFGEMRNNEMEYKFGHYSNQKLEHHHHHH” was “soluble”; that for “MSLKITDVRAHQIRIPYDAGVASFRQGASAITALDMVIVEVTTDAGLTGWGDAFAYVCPRTTRSAVEEMIAPQARGLEVPDAAGIAAVMEQIQRNLHLFGRYGITMFAISGLDIALWDLAAKIKGVPVHRLLGETRRPAIPAYASLLRIGSPDNIAAECKKALALGYGAIKLHETTAPAVYAAREAIGPGVPLMVDMNCPLSGEQAIAFAGTCRDAQPMFLEEPVWPPEDFAALAEVRSKGGLGVAAGENACTEHQFRQMMNAGAVSHAQPSVIKVGGITEFLKVAALADRLGVKIVPHSPYFGPGLLATLHLLAGRDDGFVEMFYLKREACLWGGRADVDATGHVAVPTGLGLGYEPDRGVMERYRVAEGHHHHHH” was “not soluble”.

Turning to “ENVYGYLMKYTNLVTGWQYRFFVLNNEAGLLEYFVNEQSRNQKPRGTLQLAGAVISPSDEDSHTFTVNAASGEQYKLRATDAKERQHWVSRLQICTQHHTEAIGKNN”, the “soluble on expression in E. coli” value is recorded as “soluble”. With “MGSDKIHHHHHHVSSDQVAVAGNAERLFNGAWYNLFEYGTTYANIGYRALQCQDDMMASDVVSRPKYGFNSSYQFNDVAIPSDGRTSFAWYLIYKTIDNCNTAISIKGDSEELRQAQGQALALRAFCYLHLVQHYQFTYLKDKDAPCVPIYTEPTTSGTKPKGKSTVAQVYQQIFDDLNLAQDYLTNYVRKGDGQKFKPNTDVVNGLMARAYLLTGQWGEAAKAAEAARKGYSLMTTTAEYEGFNNISNKEWIWGSPQTLSQSDASYNFYYLDATYVGAYSSFMADPHLMDTFVKGDIRLPLFQWMREGYLGYKKFHMRSDDTADLVLMRSAEMYLIEAEAKVRDGVALDQAVAPLNTLRTARGVGNYDVTGKTKEQVIDEILMERRRELWGEGFGITDVLRNQKAVERMALSEDMQKTEVDCWQEGGSFAKRNPLGHWFLNFPDGKAFSANSSYYLYAIPEKEINANPNL” the entry was “not soluble”. The value for “MSDTANAAVEIGEEALEQKLEELSVQDKTTPSNSEEKMRKRRLPTAERIRLWEEEQKSKTAITTGLQGKVKWYSVLRRYGFISRNDGEKDIFVHQTAIAKSATEKFYLRTLGDDEEVLFDLVEGKNGPEAANVTGPNGDNVIGSRYRHKLLSRFRKNRKPRASVDGEESQSTDAKPQEMSADAEKKKPRKQRKNRNRKSKAQQKGAGDAADSSAVTESSESASDVASPDSKSCSKIITEEAGLSKVDRCDSALGEAGLGAQPIDAQI” was “soluble”.

On to “MGSDKIHHHHHHMKQYGEKFIDEFSKAEFEKLAKQGQLIDVRTEEEYALGHINGSILHPVDEIESFNKEKNKTYYVICRSGNRSANASKYLAKQGYNVINLDGGYKAYEENDSYDTQEEYKSIEIKADRKQFNYRGFQCPGPIVKISQEMKNIEVGDQIEVKVTDPGFPSDIKSWVKQTRHTLVKLDENNNGINAIIQKEKAKDLDINYSAKGTTIVLFSGELDKAVAALIIANGARAAGKDVTIFFTFWGLNALKKVQTVNVKKQGIAKMFDLMLPQKNIRMPLSKMNMFGLGNMMMRYVMKKKNVDSLPTLINQAIEQNIKLIACTMSMDVMGIQKEELRDEVEYGGVGTYIGATENANHNLFI”, for which the “soluble on expression in E. coli” value is recorded as “not soluble”. In the case of “MDELNPSPPVSEDPEHWYCTNMVGVPVGLIGSTAFNRCLRRITIHGTRETHPGLFRLLAACEYPATASEVFEHYMELEFGLAPGAHEPTQARYPTSYLDLLRGWGVESDCPKAAVLKGWVESRFGLVPTFHKQRLGLFPSSAWATYLQEKTDVRFHNNCIFQQFDLLYEYCQWSIRRFKTPGPRFVRLWRGTNDVEQQLVEGDARQRLCTVRLNNLVSFSDSKERAEEFGDWVLETEVPTVKLLFFPGLLQRQVLGYEGEFLVIGGNYKVRAYHGWFAAALEHHHHHH”, the “soluble on expression in E. coli” value was “not soluble”.
